According to publication PMC9352680, “A comprehensive thermodynamic model for RNA binding by the Saccharomyces cerevisiae Pumilio protein PUF4”:

T1: PUF4 RNA-binding domain (Saccharomyces cerevisiae, UniProt P25339 537-888)
T1 sequence: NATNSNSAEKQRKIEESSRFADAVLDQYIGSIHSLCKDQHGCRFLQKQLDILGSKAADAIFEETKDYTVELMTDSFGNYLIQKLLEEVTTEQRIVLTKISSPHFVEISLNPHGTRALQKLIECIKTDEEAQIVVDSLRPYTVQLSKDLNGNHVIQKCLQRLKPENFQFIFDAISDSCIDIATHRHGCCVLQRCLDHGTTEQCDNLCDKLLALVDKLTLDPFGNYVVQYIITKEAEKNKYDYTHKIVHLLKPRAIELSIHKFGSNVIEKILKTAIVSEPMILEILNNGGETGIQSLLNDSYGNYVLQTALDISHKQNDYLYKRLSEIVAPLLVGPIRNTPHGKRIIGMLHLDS


The binders below were run against T1, PUF4 RNA-binding domain (assay: Mg; RNA-MaP; 20 mM Na-HEPES pH 7.4, 30 mM KOAc, 0.75 mM MgCl2, 0.1% Tween-20, 5% glycerol, 0.1 mg/mL BSA, 2 mM DTT; 25 C; 0.0125-409.6 nM protein). Conditions: tags: N-His6-TEV cleaved; C-SNAP kept, Cy3B-labelled; label: tethered on chip by stalled RNA polymerase.

Kd, > 2300 nM:
ACAAACUCACACUUAUUAAAACAAAC (ssRNA) [Id_ii_S3_P5E.4_K5.3_C5.2_[C-2T]_[T-1C]_H5.3_A5.1_F5.1_T5.2_[T11A]]
UCUCUUUCUCUUAUUAUCUCUU (ssRNA) [Ib_S1_P5E.1_K5.1_C5.1_H5.1_[G2C]_[A4C]_A5.1_F5.1_T5.1]
ACAAACUCACACUUAUUAAUACAAAC (ssRNA) [Id_ii_S3_P5E.4_K5.3_C5.2_[C-2T]_[T-1C]_H5.3_A5.1_F5.1_T5.2_[T11A]_[A12T]]
ACAAACUUACACUUAUUAACACAAAC (ssRNA) [Id_ii_S3_P5E.4_K5.3_C5.2_[C-2T]_H5.3_A5.1_F5.1_T5.2_[T11A]_[A12C]]
ACAAACUGACACUUAUUACCACAAAC (ssRNA) [Id_ii_S3_P5E.4_K5.3_C5.2_[C-2T]_[T-1G]_H5.3_A5.1_F5.1_T5.2_[T11C]_[A12C]]
ACAAACUUACACUUAUUAUCACAAAC (ssRNA) [Id_ii_S3_P5E.4_K5.3_C5.2_[C-2T]_H5.3_A5.1_F5.1_T5.2_[A12C]]
ACAAACAGACACUUAUUAUUACAAAC (ssRNA) [Id_ii_S3_P5E.4_K5.3_C5.2_[C-2A]_[T-1G]_H5.3_A5.1_F5.1_T5.2_[A12T]]
ACAAACACACACUUAUUAACACAAAC (ssRNA) [Id_ii_S3_P5E.4_K5.3_C5.2_[C-2A]_[T-1C]_H5.3_A5.1_F5.1_T5.2_[T11A]_[A12C]]
ACAAACUAACACUUAUUACAACAAAC (ssRNA) [Id_ii_S3_P5E.4_K5.3_C5.2_[C-2T]_[T-1A]_H5.3_A5.1_F5.1_T5.2_[T11C]]
ACAAACAAACACUUAUUAGGACAAAC (ssRNA) [Id_ii_S3_P5E.4_K5.3_C5.2_[C-2A]_[T-1A]_H5.3_A5.1_F5.1_T5.2_[T11G]_[A12G]]
ACAAACAGACACUUAUUACAACAAAC (ssRNA) [Id_ii_S3_P5E.4_K5.3_C5.2_[C-2A]_[T-1G]_H5.3_A5.1_F5.1_T5.2_[T11C]]
ACAAACAGACACUUAUUAGAACAAAC (ssRNA) [Id_ii_S3_P5E.4_K5.3_C5.2_[C-2A]_[T-1G]_H5.3_A5.1_F5.1_T5.2_[T11G]]
ACAAACUGACACUUAUUACGACAAAC (ssRNA) [Id_ii_S3_P5E.4_K5.3_C5.2_[C-2T]_[T-1G]_H5.3_A5.1_F5.1_T5.2_[T11C]_[A12G]]
ACAAACAGACACUUAUUACCACAAAC (ssRNA) [Id_ii_S3_P5E.4_K5.3_C5.2_[C-2A]_[T-1G]_H5.3_A5.1_F5.1_T5.2_[T11C]_[A12C]]
ACAAACACACACUUAUUAUCACAAAC (ssRNA) [Id_ii_S3_P5E.4_K5.3_C5.2_[C-2A]_[T-1C]_H5.3_A5.1_F5.1_T5.2_[A12C]]
ACAAACACACACUUAUUACUACAAAC (ssRNA) [Id_ii_S3_P5E.4_K5.3_C5.2_[C-2A]_[T-1C]_H5.3_A5.1_F5.1_T5.2_[T11C]_[A12T]]
ACAAACUCACACUUAUUAGCACAAAC (ssRNA) [Id_ii_S3_P5E.4_K5.3_C5.2_[C-2T]_[T-1C]_H5.3_A5.1_F5.1_T5.2_[T11G]_[A12C]]
ACAAACUCACACUUAUUACGACAAAC (ssRNA) [Id_ii_S3_P5E.4_K5.3_C5.2_[C-2T]_[T-1C]_H5.3_A5.1_F5.1_T5.2_[T11C]_[A12G]]
UCUCUUUCUUUUAUUAUCUCUU (ssRNA) [Ib_S1_P5E.1_K5.1_C5.1_H5.1_[G2C]_[A4T]_A5.1_F5.1_T5.1]
ACAAACUCACACUUAUUAUGACAAAC (ssRNA) [Id_ii_S3_P5E.4_K5.3_C5.2_[C-2T]_[T-1C]_H5.3_A5.1_F5.1_T5.2_[A12G]]
ACAAACAAACACUUAUUACAACAAAC (ssRNA) [Id_ii_S3_P5E.4_K5.3_C5.2_[C-2A]_[T-1A]_H5.3_A5.1_F5.1_T5.2_[T11C]]
ACAAACUGACACUUAUUAUAACAAAC (ssRNA) [Id_ii_S3_P5E.4_K5.3_C5.2_[C-2T]_[T-1G]_H5.3_A5.1_F5.1_T5.2]
ACAAACUGACACUUAUUAAGACAAAC (ssRNA) [Id_ii_S3_P5E.4_K5.3_C5.2_[C-2T]_[T-1G]_H5.3_A5.1_F5.1_T5.2_[T11A]_[A12G]]
ACAAACUCACACUUAUUACAACAAAC (ssRNA) [Id_ii_S3_P5E.4_K5.3_C5.2_[C-2T]_[T-1C]_H5.3_A5.1_F5.1_T5.2_[T11C]]
ACAAACAGACACUUAUUAUCACAAAC (ssRNA) [Id_ii_S3_P5E.4_K5.3_C5.2_[C-2A]_[T-1G]_H5.3_A5.1_F5.1_T5.2_[A12C]]
ACAAACAAACACUUAUUACCACAAAC (ssRNA) [Id_ii_S3_P5E.4_K5.3_C5.2_[C-2A]_[T-1A]_H5.3_A5.1_F5.1_T5.2_[T11C]_[A12C]]
ACAAACUUACACUUAUUACGACAAAC (ssRNA) [Id_ii_S3_P5E.4_K5.3_C5.2_[C-2T]_H5.3_A5.1_F5.1_T5.2_[T11C]_[A12G]]
